According to patent US20200199204A1 (UNITED STATES OF AMERICA AS REPRESENTED BY THE SECRETARY …, published 2020):

What was measured:
Test in all cases: cell-based or functional assay
HIV-1 Env of ZM233.6 = HIV-1 Env of ZM233.6 (HIV-1)
HIV-1 Env of ZM214.15 = HIV-1 Env of ZM214.15 (HIV-1)
HIV-1 Env of Q461.e2 = HIV-1 Env of Q461.e2 (HIV-1)
HIV-1 Env of CAAN.A2 = HIV-1 Env of CAAN.A2 (HIV-1)
HIV-1 Env of REJO.67 = HIV-1 Env of REJO.67 (HIV-1)
HIV-1 Env of C1080.c3 = HIV-1 Env of C1080.c3 (HIV-1)
HIV-1 Env of SC422.8 = HIV-1 Env of SC422.8 (HIV-1)
HIV-1 Env of ZM197.7 = HIV-1 Env of ZM197.7 (HIV-1)
HIV-1 Env of Q168.a2 = HIV-1 Env of Q168.a2 (HIV-1)
HIV-1 Env of ZM249.1 = HIV-1 Env of ZM249.1 (HIV-1)
HIV-1 Env of KER2008.12 = HIV-1 Env of KER2008.12 (HIV-1)
HIV-1 Env of MB539.2B7 = HIV-1 Env of MB539.2B7 (HIV-1)
HIV-1 Env of CAP256.SU = HIV-1 Env of CAP256.SU (HIV-1)
HIV-1 Env of 6535.3 = HIV-1 Env of 6535.3 (HIV-1)
HIV-1 Env of ZM53.12 = HIV-1 Env of ZM53.12 (HIV-1)
HIV-1 Env of RW020.2 = HIV-1 Env of RW020.2 (HIV-1)
HIV-1 Env of 96ZM651.02 = HIV-1 Env of 96ZM651.02 (HIV-1)
HIV-1 Env of 6405.v4.c34 = HIV-1 Env of 6405.v4.c34 (HIV-1)
HIV-1 Env of TRJO.58 = HIV-1 Env of TRJO.58 (HIV-1)
HIV-1 Env of 0260.v5.c36 = HIV-1 Env of 0260.v5.c36 (HIV-1)
HIV-1 Env of 3016.V5.c36 = HIV-1 Env of 3016.V5.c36 (HIV-1)
HIV-1 Env of ZM109.4 = HIV-1 Env of ZM109.4 (HIV-1)
HIV-1 Env of AC10.29 = HIV-1 Env of AC10.29 (HIV-1)
HIV-1 Env of Q842.d12 = HIV-1 Env of Q842.d12 (HIV-1)
HIV-1 Env of KER2018.11 = HIV-1 Env of KER2018.11 (HIV-1)
HIV-1 Env of Q23.17 = HIV-1 Env of Q23.17 (HIV-1)
HIV-1 Env of WITO.33 = HIV-1 Env of WITO.33 (HIV-1)
HIV-1 Env of 191821.E6.1 = HIV-1 Env of 191821.E6.1 (HIV-1)
HIV-1 Env of RHPA.7 = HIV-1 Env of RHPA.7 (HIV-1)
HIV-1 Env of MB201 = HIV-1 Env of MB201 (HIV-1)
HIV-1 Env of ZM135.10a = HIV-1 Env of ZM135.10a (HIV-1)
HIV-1 Env of QH0692.42 = HIV-1 Env of QH0692.42 (HIV-1)
HIV-1 Env of BG505.w6m = HIV-1 Env of BG505.w6m (HIV-1)
HIV-1 Env of CM244.ec1 = HIV-1 Env of CM244.ec1 (HIV-1)
HIV-1 Env of DU172.17 = HIV-1 Env of DU172.17 (HIV-1)
HIV-1 Env of Q259.d2.17 = HIV-1 Env of Q259.d2.17 (HIV-1)
HIV-1 Env of DU156.12 = HIV-1 Env of DU156.12 (HIV-1)
HIV-1 Env of THRO.18 = HIV-1 Env of THRO.18 (HIV-1)
HIV-1 Env of TRO.11 = HIV-1 Env of TRO.11 (HIV-1)
HIV-1 Env of DU422.01 = HIV-1 Env of DU422.01 (HIV-1)
HIV-1 Env of CAP210.E8 = HIV-1 Env of CAP210.E8 (HIV-1)
HIV-1 Env of Q769.d22 = HIV-1 Env of Q769.d22 (HIV-1)
HIV-1 Env of CAP45.G3 = HIV-1 Env of CAP45.G3 (HIV-1)
HIV-1 Env of UG037.8 = HIV-1 Env of UG037.8 (HIV-1)
HIV-1 Env of CAP256.PI = HIV-1 Env of CAP256.PI (HIV-1)
HIV-1 Env of CAP244.D3 = HIV-1 Env of CAP244.D3 (HIV-1)
HIV-1 Env of PVO.04 = HIV-1 Env of PVO.04 (HIV-1)

B1: CAP256-VRC26.10 (antibody, V domains shown)
VH: QAILVESGGGVVQPGRSLRLSCAASQFTFSGHGLHWVRQAPGKGLEWVASISFAGTKMDYADSVKGRFAISRDNSKNTLYLQMNSLRVEDTALYYCAKDMREYECEYWTSDYYDFGRPQPCIDRRGVVGIFDMWGQGTMVTVST
VL: QSVLTQPPSVSAAPGQKVTISCSGSSSNIGDNYVSWYQHLPGTAPKLLIYENTRRPSGIPDRFSGSKSGTSATLAITGLQTGDEADYYCGTWDVRPNRGAVFGTGTKVTVLG
HIV-1 Env of ZM233.6
  neutralization IC50: 0.228 µg/mL
HIV-1 Env of ZM214.15
  neutralization IC50: > 50 µg/mL
HIV-1 Env of Q461.e2
  neutralization IC50: > 50 µg/mL
HIV-1 Env of CAAN.A2
  neutralization IC50: > 50 µg/mL
HIV-1 Env of REJO.67
  neutralization IC50: > 50 µg/mL
HIV-1 Env of C1080.c3
  neutralization IC50: > 50 µg/mL
HIV-1 Env of SC422.8
  neutralization IC50: > 50 µg/mL
HIV-1 Env of ZM197.7
  neutralization IC50: 0.346 µg/mL
HIV-1 Env of Q168.a2
  neutralization IC50: > 50 µg/mL
HIV-1 Env of ZM249.1
  neutralization IC50: > 50 µg/mL
HIV-1 Env of KER2008.12
  neutralization IC50: > 50 µg/mL
HIV-1 Env of MB539.2B7
  neutralization IC50: > 50 µg/mL
HIV-1 Env of CAP256.SU
  neutralization IC50: 0.031 µg/mL
HIV-1 Env of 6535.3
  neutralization IC50: > 50 µg/mL
HIV-1 Env of ZM53.12
  neutralization IC50: 0.072 µg/mL
HIV-1 Env of RW020.2
  neutralization IC50: > 50 µg/mL
HIV-1 Env of 96ZM651.02
  neutralization IC50: > 50 µg/mL
HIV-1 Env of 6405.v4.c34
  neutralization IC50: > 50 µg/mL
HIV-1 Env of TRJO.58
  neutralization IC50: > 50 µg/mL
HIV-1 Env of 0260.v5.c36
  neutralization IC50: > 50 µg/mL
HIV-1 Env of 3016.V5.c36
  neutralization IC50: 0.017 µg/mL
HIV-1 Env of ZM109.4
  neutralization IC50: > 50 µg/mL
HIV-1 Env of AC10.29
  neutralization IC50: > 50 µg/mL
HIV-1 Env of Q842.d12
  neutralization IC50: > 50 µg/mL
HIV-1 Env of KER2018.11
  neutralization IC50: 0.335 µg/mL
HIV-1 Env of Q23.17
  neutralization IC50: 2.59 µg/mL
HIV-1 Env of WITO.33
  neutralization IC50: > 50 µg/mL
HIV-1 Env of 191821.E6.1
  neutralization IC50: > 50 µg/mL
HIV-1 Env of RHPA.7
  neutralization IC50: > 50 µg/mL
HIV-1 Env of MB201
  neutralization IC50: > 50 µg/mL
HIV-1 Env of ZM135.10a
  neutralization IC50: > 50 µg/mL
HIV-1 Env of QH0692.42
  neutralization IC50: > 50 µg/mL
HIV-1 Env of BG505.w6m
  neutralization IC50: > 50 µg/mL
HIV-1 Env of CM244.ec1
  neutralization IC50: 0.914 µg/mL
HIV-1 Env of DU172.17
  neutralization IC50: > 50 µg/mL
HIV-1 Env of Q259.d2.17
  neutralization IC50: 24.6 µg/mL
HIV-1 Env of DU156.12
  neutralization IC50: > 50 µg/mL
HIV-1 Env of THRO.18
  neutralization IC50: > 50 µg/mL
HIV-1 Env of TRO.11
  neutralization IC50: > 50 µg/mL
HIV-1 Env of DU422.01
  neutralization IC50: 8.2 µg/mL
HIV-1 Env of CAP210.E8
  neutralization IC50: 0.1 µg/mL
HIV-1 Env of Q769.d22
  neutralization IC50: > 50 µg/mL
HIV-1 Env of CAP45.G3
  neutralization IC50: > 50 µg/mL
HIV-1 Env of UG037.8
  neutralization IC50: > 50 µg/mL
HIV-1 Env of CAP256.PI
  neutralization IC50: > 50 µg/mL
HIV-1 Env of CAP244.D3
  neutralization IC50: > 50 µg/mL
HIV-1 Env of PVO.04
  neutralization IC50: 2.48 µg/mL
